Activity (% knockout (CD3 loss)), activity and CD19+ K562 cells remaining after co-culture with CAR T cells data for seven substances are collected here from US20190048060A1.

The test system of series [1] is ZFN SBS68876 (engineered). Put plainly: cell_activity. The following applies: pair with SBS68877, human T cells.
The subject of series [2] is ZFN SBS68812 (engineered). Put plainly: cell_activity. Particulars: pair with SBS68813, multiplex with B2M and CISH ZFNs plus GFP donor, T cells.
Series [3] has as its system ZFN SBS53853 (engineered). The series is described as follows: cell_activity. Particulars: pair with SBS55266, TCRA ZFN only, human T cells.
Series [4] has as its system ZFN SBS59489 (engineered). Put plainly: cell_activity. The following applies: pair with SBS59488, multiplex with TRAC and B2M ZFNs plus GFP donor, T cells.
Series [5] concerns ZFN SBS57071 (engineered). Put plainly: cell_activity. Particulars: pair with SBS57531, B2M ZFN only, human T cells.
The target of series [6] is human CD19 (human) (UniProt P15391). Put plainly: cell-based or functional assay.
Series [7] has as its system ZFN SBS57531 (engineered). The series is described as follows: cell_activity. The following applies: pair with SBS57071, B2M ZFN only, human T cells.
The subject of series [8] is ZFN SBS59488 (engineered). Put plainly: cell_activity. The following applies: pair with SBS59489, multiplex with TRAC and B2M ZFNs plus GFP donor, T cells.

Substance “CTCCTGAAAGTGGCCGGGTTTAATCTGC (double strand) [TCRA site 68812/68876]” displayed an activity (% knockout (CD3 loss)) in series [1] of 97. The activity in series [2] came out at 93 % knockout.

“AACAGGTAAGACAGGGGTCTAGCCTGGG (double strand) [TCRA site 53853]” gave an activity in series [3] of 88.3 % indels. For “GAGGAGGTGGCAGAGGGTACCCCAGCCC (double strand) [CISH site 59489]”, in series [4], the activity is 98 % knockout.

As to “GCCACGGAGCGAGACATCTCGGCCCGAA (double strand) [B2M site 57071]”, the activity in series [5] came to 86.6 % indels. In series [6], “FMC63-CD8BBZ (CD19 CAR) (from UniProt P01732 138-206; Q07011 214-255; P20963 52-164)” registered a CD19+ K562 cells remaining after co-culture with CAR T cells at effector:target 2:1 (CAR inserted at the B2M gene) of 0.4% and a CD19+ K562 cells remaining after co-culture with CAR T cells at effector:target 2:1 (CAR inserted at the TCRA gene) of 0.1%. The substance “GAGTAGCGCGAGCACAGCTAAGGCCACG (double strand) [B2M site 57531]” displayed an activity in series [7] of 86.6 % indels. On to “GGAAGGCCCCAGCAGGCAAGGGCTGCAT (double strand) [CISH site 59488]”, for which the activity in series [8] is 98 % knockout.
